“And” between values parts separate entries of the source, which are not always exact repeats. Equal entries are not always repeated. Where two headings read alike, the source gives them in different places. Square brackets hold non-standard residues; d marks the D form. Ends that are not written are not given here. * marks the point of attachment. MCA = alpha-methylhydrocinnamic acid (2-methyl-3-phenylpropanoic acid); PLA = 3-phenyllactic acid (2-hydroxy-3-phenylpropanoic acid); PhLac = O=C(O)[C@@H](O)Cc1ccccc1; Carboxymethyl = O=C(O)C*
Columns and labels:
glucagon receptor [1] = molecular target: T1, glucagon receptor (UniProt P47871 26-477, limits assumed); assay: receptor binding (named so for the same values in Table I), method not described
T1 construct: whole, on cells; also called GR; Glucagon

glucagon receptor [2] = molecular target: T1, glucagon receptor; assay: cell-based or functional assay
glucagon receptor [3] = molecular target: T1, glucagon receptor; assay: receptor binding, method not described
glucagon receptor [4] = molecular target: T1, glucagon receptor; assay: cell-based or functional assay; remark: listed apart in the source
glucagon receptor [5] = molecular target: T1, glucagon receptor; assay: receptor binding, method not described; remark: listed apart in the source
glucagon receptor [6] = molecular target: T1, glucagon receptor; assay: cell-based or functional assay; remark: listed apart in the source
glucagon receptor [7] = molecular target: T1, glucagon receptor; assay: cell-based or functional assay; remark: listed apart in the source
glucagon receptor [8] = molecular target: T1, glucagon receptor; assay: receptor binding, method not described; remark: listed apart in the source

T1 sequence (P47871 26-477 limits assumed): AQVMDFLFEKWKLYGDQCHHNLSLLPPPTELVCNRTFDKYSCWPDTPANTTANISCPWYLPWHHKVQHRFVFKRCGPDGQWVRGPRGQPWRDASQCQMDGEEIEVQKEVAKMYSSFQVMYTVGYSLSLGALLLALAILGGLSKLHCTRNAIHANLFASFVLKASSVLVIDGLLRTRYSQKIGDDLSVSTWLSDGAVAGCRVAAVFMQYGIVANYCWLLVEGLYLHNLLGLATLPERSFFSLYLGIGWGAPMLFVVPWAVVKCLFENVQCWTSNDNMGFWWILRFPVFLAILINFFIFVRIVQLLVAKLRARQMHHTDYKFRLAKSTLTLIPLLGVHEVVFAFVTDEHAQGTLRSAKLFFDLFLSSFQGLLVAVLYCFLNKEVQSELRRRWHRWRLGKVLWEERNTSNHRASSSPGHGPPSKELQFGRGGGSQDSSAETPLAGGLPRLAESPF

B1: [Leu^4, Glu^9]Glucagon(aa4-29)-NH2 (peptide)
peptide: LTFTSEYSKYLDSRRAQDFVQWLMNT-NH2
notes: also called peptide no
IC50 (glucagon receptor [1]): 36.4 nM

B2: [desHis^1, Glu^9, Phe^25, Leu^27]Glucagon-NH2 (peptide)
peptide: SQGTFTSEYSKYLDSRRAQDFVQFLLNT-NH2
cAMP Induction EC50 (glucagon receptor [2]): 81 nM
IC50 (glucagon receptor [3]): 12.6 nM

B3: [desHis^1, Leu^4, Glu^9]Glucagon-NH2 (peptide)
peptide: SQLTFTSEYSKYLDSRRAQDFVQWLMNT-NH2
notes: also called Cmpd
cAMP Induction EC50 (glucagon receptor [2]): 318 nM
cAMP Inhibition IC50 (glucagon receptor [2]): 102 nM
IC50 (glucagon receptor [3]): 36.9 nM

B4: [desHis^1, Leu^4, hCys^9(SO3^-), Phe^25, Leu^27]Glucagon-NH2 (peptide)
peptide: SQLTFTSXYSKYLDSRRAQDFVQFLLNT
HELM: PEPTIDE1{S.Q.L.T.F.T.S.[O=C([C@H](CCS(=O)(=O)O)N[*:1])[*:2]].Y.S.K.Y.L.D.S.R.R.A.Q.D.F.V.Q.F.L.L.N.T.[am]}$$$$V2.0; N-terminus assumed
SMILES: CC(C)C[C@H](NC(=O)[C@H](Cc1ccc(O)cc1)NC(=O)[C@H](CCCCN)NC(=O)[C@H](CO)NC(=O)[C@H](Cc1ccc(O)cc1)NC(=O)[C@H](CCS(=O)(=O)O)NC(=O)[C@H](CO)NC(=O)[C@@H](NC(=O)[C@H](Cc1ccccc1)NC(=O)[C@@H](NC(=O)[C@H](CC(C)C)NC(=O)[C@H](CCC(N)=O)NC(=O)[C@@H](N)CO)[C@@H](C)O)[C@@H](C)O)C(=O)N[C@@H](CC(=O)O)C(=O)N[C@@H](CO)C(=O)N[C@@H](CCCNC(=N)N)C(=O)N[C@@H](CCCNC(=N)N)C(=O)N[C@@H](C)C(=O)N[C@@H](CCC(N)=O)C(=O)N[C@@H](CC(=O)O)C(=O)N[C@@H](Cc1ccccc1)C(=O)N[C@H](C(=O)N[C@@H](CCC(N)=O)C(=O)N[C@@H](Cc1ccccc1)C(=O)N[C@@H](CC(C)C)C(=O)N[C@@H](CC(C)C)C(=O)N[C@@H](CC(N)=O)C(=O)N[C@H](C(N)=O)[C@@H](C)O)C(C)C
cAMP Induction EC50 (glucagon receptor [2]): 1610 nM
cAMP Inhibition IC50 (glucagon receptor [2]): 4460 nM

B5: [C5(20kDaPEG), E9]Glucagon(aa5-29)-NH2 (peptide)
peptide: C(PEG 20 kDa)FTSEYSKYLDSRRAQDFVQWLMNT-NH2
IC50(nM) (cAMP, inhibit 0.2 mM Glucagon) (glucagon receptor [4]): 976 nM
IC50 (glucagon receptor [5]): 331 nM

B6: [C5(5kDaPEG), E9]Glucagon(aa5-29)-NH2 (peptide)
peptide: C(PEG 5 kDa)FTSEYSKYLDSRRAQDFVQWLMNT-NH2
IC50(nM) (cAMP, inhibit 0.2 mM Glucagon) (glucagon receptor [4]): 1610 nM
IC50 (glucagon receptor [5]): 634 nM

B7: [PLA6, C8(1.2kDaPEG), E9]Glucagon(aa6-29)-NH2 (peptide)
peptide: {PLA}-TC(PEG 1.2 kDa)EYSKYLDSRRAQDFVQWLMNT-NH2
IC50 (glucagon receptor [5]): 220 nM

B8: [PLA6, C8(5kDaPEG), E9]Glucagon(aa6-29)-NH2 (peptide)
peptide: {PLA}-TC(PEG 5 kDa)EYSKYLDSRRAQDFVQWLMNT-NH2
IC50(nM) (cAMP, inhibit 0.2 mM Glucagon) (glucagon receptor [4]): 216 nM
IC50 (glucagon receptor [5]): 948 nM

B9: [PLA6, E9,C24(1.2 kDaPEG)]Glucagon(aa6-29)-NH2 (peptide)
peptide: {PLA}-TSEYSKYLDSRRAQDFVC(PEG 1.2 kDa)WLMNT-NH2
IC50(nM) (cAMP, inhibit 0.2 mM Glucagon) (glucagon receptor [4]): 18 nM
IC50 (glucagon receptor [5]): 4.7 nM

B10: [hGlu^9]Glucagon(aa6-29)-NH2 (peptide)
peptide: FTSXYSKYLDSRRAQDFVQWLMNT
HELM: PEPTIDE1{F.T.S.[O=C(O)CCC[C@H](N[*:1])C(=O)[*:2]].Y.S.K.Y.L.D.S.R.R.A.Q.D.F.V.Q.W.L.M.N.T.[am]}$$$$V2.0; N-terminus assumed
SMILES: CSCC[C@H](NC(=O)[C@H](CC(C)C)NC(=O)[C@H](Cc1c[nH]c2ccccc12)NC(=O)[C@H](CCC(N)=O)NC(=O)[C@@H](NC(=O)[C@H](Cc1ccccc1)NC(=O)[C@H](CC(=O)O)NC(=O)[C@H](CCC(N)=O)NC(=O)[C@H](C)NC(=O)[C@H](CCCNC(=N)N)NC(=O)[C@H](CCCNC(=N)N)NC(=O)[C@H](CO)NC(=O)[C@H](CC(=O)O)NC(=O)[C@H](CC(C)C)NC(=O)[C@H](Cc1ccc(O)cc1)NC(=O)[C@H](CCCCN)NC(=O)[C@H](CO)NC(=O)[C@H](Cc1ccc(O)cc1)NC(=O)[C@H](CCCC(=O)O)NC(=O)[C@H](CO)NC(=O)[C@@H](NC(=O)[C@@H](N)Cc1ccccc1)[C@@H](C)O)C(C)C)C(=O)N[C@@H](CC(N)=O)C(=O)N[C@H](C(N)=O)[C@@H](C)O
notes: also called [hE^9]Glucagon(aa6-29)-NH2; peptide no
cAMP IC50 (glucagon receptor [6]): 472 nM
cAMP pA2 (glucagon receptor [6]): 6.27
IC50 (glucagon receptor [1]): 163 nM
cAMP (I/A)50 (glucagon receptor [7]): 2360
cAMP pA2 (glucagon receptor [7]): 6.27
IC50 (glucagon receptor [8]): 163 nM

B11: 3.4kDaPEG-dimer[C5, E9]Glucagon(aa5-29)-NH2 (peptide)
peptide: C(PEG 3.4 kDa)FTSEYSKYLDSRRAQDFVQWLMNT-NH2
modifications: also: dimer: two chains joined by 3.4 kDa PEG at Cys5
IC50(nM) (cAMP, inhibit 0.2 mM Glucagon) (glucagon receptor [4]): 1340 nM
IC50 (glucagon receptor [5]): 435 nM

B12: [desHis^1, desPhe^6]Glucagon-NH2 (peptide)
peptide: SQGTTSDYSKYLDSRRAQDFVQWLMNT-NH2
notes: also called Cmpd
cAMP Induction EC50 (glucagon receptor [2]): 1180 nM
IC50 (glucagon receptor [3]): 130 nM

B13: [C5(1.2kDaPEG), E9]Glucagon(aa5-29)-NH2 (peptide)
peptide: C(PEG 1.2 kDa)FTSEYSKYLDSRRAQDFVQWLMNT-NH2
IC50(nM) (cAMP, inhibit 0.2 mM Glucagon) (glucagon receptor [4]): 2280 nM
IC50 (glucagon receptor [5]): 1080 nM

B14: [MCA6, E9, C24(20kDaPEG)]Glucagon(aa6-29)-NH2 (peptide)
peptide: [MCA]TSEYSKYLDSRRAQDFVC(maleimido methoxyPEG 20 kDa)WLMNT-NH2
IC50 (glucagon receptor [5]): 208 nM

B15: [PLA6, C8(20kDaPEG), E9]Glucagon(aa6-29)-NH2 (peptide)
peptide: [PhLac]TC(maleimido methoxyPEG 20 kDa)EYSKYLDSRRAQDFVQWLMNT-NH2
IC50(nM) (cAMP, inhibit 0.2 mM Glucagon) (glucagon receptor [4]): 236 nM and 92 nM
IC50 (glucagon receptor [5]): 303 nM

B16: [PLA6, E9, C11(20kDaPEG)]Glucagon(aa6-29)-NH2 (peptide)
peptide: [PhLac]TSEYC(maleimido methoxyPEG 20 kDa)KYLDSRRAQDFVQWLMNT-NH2
IC50(nM) (cAMP, inhibit 0.2 mM Glucagon) (glucagon receptor [4]): 664 nM
IC50 (glucagon receptor [5]): 776 nM

B17: [PLA6, E9, C24(20kDaPEG)]Glucagon(aa6-29)-NH2 (peptide)
peptide: [PhLac]TSEYSKYLDSRRAQDFVC(maleimido methoxyPEG 20 kDa)WLMNT-NH2
IC50(nM) (cAMP, inhibit 0.2 mM Glucagon) (glucagon receptor [4]): 126 nM
IC50 (glucagon receptor [5]): 90 nM

B18: Glucagon(aa6-29)-NH2 (peptide)
peptide: FTSDYSKYLDSRRAQDFVQWLMNT-NH2
notes: also called peptide no
cAMP IC50 (glucagon receptor [6]): 346 nM
cAMP pA2 (glucagon receptor [6]): 6.94
IC50 (glucagon receptor [1]): 1890 nM
cAMP (I/A)50 (glucagon receptor [7]): 1730
cAMP pA2 (glucagon receptor [7]): 6.94
IC50 (glucagon receptor [8]): 1670 nM

B19: [Lys^9]Glucagon(aa6-29)-NH2 (peptide)
peptide: FTSKYSKYLDSRRAQDFVQWLMNT-NH2
notes: also called [K^9]Glucagon(aa6-29)-NH2; peptide no
cAMP IC50 (glucagon receptor [6]): 398 nM
cAMP pA2 (glucagon receptor [6]): 6.58
IC50 (glucagon receptor [1]): 5780 nM
cAMP (I/A)50 (glucagon receptor [7]): 1990
cAMP pA2 (glucagon receptor [7]): 6.58
IC50 (glucagon receptor [8]): 3240 nM

B20: [(CSA-1)^9]Glucagon(aa6-29)-NH2 (peptide)
peptide: FTSC(Carboxymethyl)YSKYLDSRRAQDFVQWLMNT-NH2
modifications: N-terminus assumed
SMILES: CSCC[C@H](NC(=O)[C@H](CC(C)C)NC(=O)[C@H](Cc1c[nH]c2ccccc12)NC(=O)[C@H](CCC(N)=O)NC(=O)[C@@H](NC(=O)[C@H](Cc1ccccc1)NC(=O)[C@H](CC(=O)O)NC(=O)[C@H](CCC(N)=O)NC(=O)[C@H](C)NC(=O)[C@H](CCCNC(=N)N)NC(=O)[C@H](CCCNC(=N)N)NC(=O)[C@H](CO)NC(=O)[C@H](CC(=O)O)NC(=O)[C@H](CC(C)C)NC(=O)[C@H](Cc1ccc(O)cc1)NC(=O)[C@H](CCCCN)NC(=O)[C@H](CO)NC(=O)[C@H](Cc1ccc(O)cc1)NC(=O)[C@H](CSCC(=O)O)NC(=O)[C@H](CO)NC(=O)[C@@H](NC(=O)[C@@H](N)Cc1ccccc1)[C@@H](C)O)C(C)C)C(=O)N[C@@H](CC(N)=O)C(=O)N[C@H](C(N)=O)[C@@H](C)O
notes: also called [C^9(SCH2COOH)]Glucagon(aa6-29)-NH2; peptide no
cAMP IC50 (glucagon receptor [6]): 101 nM
cAMP pA2 (glucagon receptor [6]): 6.68
IC50 (glucagon receptor [1]): 107 nM
cAMP (I/A)50 (glucagon receptor [7]): 506
cAMP pA2 (glucagon receptor [7]): 6.68
IC50 (glucagon receptor [8]): 107 nM

B21: [(CSA-2)^9]Glucagon(aa6-29)-NH2 (peptide)
peptide: FTSCYSKYLDSRRAQDFVQWLMNT
HELM: PEPTIDE1{F.T.S.[O=C(O)CCSC[C@H](N[*:1])C(=O)[*:2]].Y.S.K.Y.L.D.S.R.R.A.Q.D.F.V.Q.W.L.M.N.T.[am]}$$$$V2.0; N-terminus assumed
SMILES: CSCC[C@H](NC(=O)[C@H](CC(C)C)NC(=O)[C@H](Cc1c[nH]c2ccccc12)NC(=O)[C@H](CCC(N)=O)NC(=O)[C@@H](NC(=O)[C@H](Cc1ccccc1)NC(=O)[C@H](CC(=O)O)NC(=O)[C@H](CCC(N)=O)NC(=O)[C@H](C)NC(=O)[C@H](CCCNC(=N)N)NC(=O)[C@H](CCCNC(=N)N)NC(=O)[C@H](CO)NC(=O)[C@H](CC(=O)O)NC(=O)[C@H](CC(C)C)NC(=O)[C@H](Cc1ccc(O)cc1)NC(=O)[C@H](CCCCN)NC(=O)[C@H](CO)NC(=O)[C@H](Cc1ccc(O)cc1)NC(=O)[C@H](CSCCC(=O)O)NC(=O)[C@H](CO)NC(=O)[C@@H](NC(=O)[C@@H](N)Cc1ccccc1)[C@@H](C)O)C(C)C)C(=O)N[C@@H](CC(N)=O)C(=O)N[C@H](C(N)=O)[C@@H](C)O
notes: also called [C^9(SCH2CH2COOH)]Glucagon(aa6-29)-NH2; peptide no
cAMP IC50 (glucagon receptor [6]): 116 nM
cAMP pA2 (glucagon receptor [6]): 6.64
IC50 (glucagon receptor [1]): 146 nM
cAMP (I/A)50 (glucagon receptor [7]): 580
cAMP pA2 (glucagon receptor [7]): 6.64
IC50 (glucagon receptor [8]): 146 nM
